According to the supplement of paper PMC7877785:
± gives the uncertainty stated by the source.

Assay: self-splicing fitness, log relative to wild type (ln ratio); higher = more splicing; Tetrahymena group I intron in knt gene, E. coli kanamycin selection, DiMSum; sequences stand for … in CUCUCU…GGAGGGAAAAGUUAUCAGGCAUGCACCUGGUAGCUAGUCUUUAAACCAAUAGAUUGCAUCGGUUUAAAAGGCAAGACCGUCAAAUUGCGGGAAAGGGGUCAACAGCCGUUCAGUACCAAGUCUCAGGGGAAACUUUGAGAUGGCCUUGCAAAGGGUAUGGUAAUAAGCUGACGGACAUGGUCCUAACCACGCAGCCAAGUCCUAAGUCAACAGAUCUUCUGUUGAUAUGGAUGCAGUUCACAGACUAAAUGUCGGUCGGGGAAGAUGUAUUCUUCUCAUAAGAUAUAGUCGGACCUCUCCUUAAUGGGAGCUAGCGGAUGAAGUGAUGCAACACUGGAGCCGCUGGGAACUAAUUUGUAUGCGAAAGUAUAUUGAUUAGUUUUGGAGUACUCGUGGUCG
Method in brief: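 Library with all eight P1ex-region intron nucleotides randomised, intron inside the knt kanamycin-resistance gene on pET-22b(+), in E. coli BL21(DE3). Cells grew overnight at 37°C or 30°C on LB agar with or without 25 μg/mL kanamycin (plus 100 μg/mL carbenicillin, 50 μM IPTG, 0.2% rhamnose), in six replicate transformations. Pooled colonies were amplicon-sequenced on Illumina HiSeq 2500. DiMSum fitness is the error-weighted combination of wild-type-normalised replicate fold changes, kanamycin versus none.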

Sequence | self-splicing fitness (ln) (30 °C) | self-splicing fitness (ln) (37 °C)
CUUUAGCAAUAUUACGUAUA | -3.57 ± 0.27 | -2.38 ± 0.49
CUUUAGCAAUAUUACGUCGA | – | -1.96 ± 0.48
CUUUAGCAAUAUUACGUGAC | -1.42 ± 0.19 | -1.53 ± 0.29
CUUUAGCAAUAUUACGUGUG | -1.6 ± 0.094 | -0.61 ± 0.08
CUUUAGCAAUAUUACGUUGA | – | -3.01 ± 0.35
CUUUAGCAAUAUUACGUUUG | -2.43 ± 0.17 | -1.5 ± 0.17
GAAAAGCAAUAUUACGAAUA | -1.57 ± 0.13 | -1.19 ± 0.1
GAAAAGCAAUAUUACGAGGU | -3.97 ± 0.14 | -2.92 ± 0.13
GAAAAGCAAUAUUACGAGUA | -3.92 ± 0.42 | -2.44 ± 0.2
GAAAAGCAAUAUUACGAUAA | -1.58 ± 0.081 | -0.197 ± 0.091
GAAAAGCAAUAUUACGAUGC | -0.709 ± 0.08 | -0.503 ± 0.1
GAAAAGCAAUAUUACGCACG | -0.543 ± 0.09 | -0.904 ± 0.12
GAAAAGCAAUAUUACGCACU | -0.498 ± 0.098 | 0.475 ± 0.1
GAAAAGCAAUAUUACGCAUG | -1.12 ± 0.079 | -0.337 ± 0.1
GAAAAGCAAUAUUACGCAUU | -3.24 ± 0.17 | -0.376 ± 0.11
GAAAAGCAAUAUUACGCGUU | -2.98 ± 0.13 | -1.18 ± 0.12
GAAAAGCAAUAUUACGCUAC | -2.67 ± 0.27 | -2.37 ± 0.29
GAAAAGCAAUAUUACGCUAG | -1.8 ± 0.076 | -1.57 ± 0.099
GAAAAGCAAUAUUACGCUGA | -1.91 ± 0.24 | -1.65 ± 0.21
GAAAAGCAAUAUUACGCUGC | -3.12 ± 0.24 | -1.61 ± 0.39
GAAAAGCAAUAUUACGGAAA | -2.88 ± 0.27 | -1.55 ± 0.16
GAAAAGCAAUAUUACGGAGA | -3.59 ± 0.26 | -2.19 ± 0.21
GAAAAGCAAUAUUACGGCUC | -0.401 ± 0.085 | 0.342 ± 0.12
GAAAAGCAAUAUUACGGUAU | -2.38 ± 0.11 | -1.69 ± 0.14

Sequence | self-splicing fitness (ln) (30 °C) | self-splicing fitness (ln) (37 °C)
GAAAAGCAAUAUUACGGUCC | -1.8 ± 0.23 | -0.588 ± 0.17
GAAAAGCAAUAUUACGUCUA | -0.367 ± 0.053 | 0.0921 ± 0.066
GAAAAGCAAUAUUACGUGAU | -2.38 ± 0.087 | -1.9 ± 0.11
GAAAAGCAAUAUUACGUGCU | -1.8 ± 0.098 | -0.978 ± 0.1
GAAAAGCAAUAUUACGUUUA | -1.32 ± 0.11 | -0.963 ± 0.1
GAACAGCAAUAUUACGAACU | -0.795 ± 0.07 | 0.239 ± 0.09
GAACAGCAAUAUUACGACGG | -3.4 ± 0.19 | -1.81 ± 0.18
GAACAGCAAUAUUACGACGU | -0.688 ± 0.064 | 0.167 ± 0.077
GAACAGCAAUAUUACGAGCA | -1.01 ± 0.1 | -0.521 ± 0.1
GAACAGCAAUAUUACGAGUC | -2.08 ± 0.09 | -1.45 ± 0.094
GAACAGCAAUAUUACGAUGU | -1.05 ± 0.043 | -0.336 ± 0.06
GAACAGCAAUAUUACGCAGG | -3.74 ± 0.14 | -2.7 ± 0.11
GAACAGCAAUAUUACGCCCU | -1.69 ± 0.42 | 0.579 ± 0.37
GAACAGCAAUAUUACGCUGG | -1.98 ± 0.28 | -1.3 ± 0.2
GAACAGCAAUAUUACGGCGC | -0.147 ± 0.065 | -0.195 ± 0.09
GAACAGCAAUAUUACGGCGG | -3.13 ± 0.16 | -0.604 ± 0.12
GAACAGCAAUAUUACGGUAC | -1.37 ± 0.064 | -0.573 ± 0.072
GAACAGCAAUAUUACGGUCC | -4.14 ± 0.25 | -0.683 ± 0.13
GAACAGCAAUAUUACGGUGC | -1.38 ± 0.074 | -1.22 ± 0.086
GAACAGCAAUAUUACGUACU | -1.26 ± 0.077 | -0.125 ± 0.1
GAACAGCAAUAUUACGUAGG | -2.12 ± 0.057 | -0.569 ± 0.066
GAACAGCAAUAUUACGUUCU | -3.36 ± 0.13 | -3.63 ± 0.2
GAAGAGCAAUAUUACGAAAG | -4.13 ± 0.31 | -2.41 ± 0.18
GAAGAGCAAUAUUACGAACG | – | -2.41 ± 0.33
